In paper PMC7890063, “Bioinformatics-aided identification, characterization and applications of mushroom linalool synthases” (Communications Biology, 2021):

What was measured:
Ap.LS (Agrped1_689675) = assay: PPi release, EnzChek pyrophosphate assay; assay type: biochemical, Agrocybe pediades; details: 37 °C, 1 h; enzyme 71.2% pure; product (R)-linalool; read-out: Monoterpene synthase
Source text: PPi release, EnzChek pyrophosphate assay on Ap.LS (Agrped1_689675)

Sc.LNS = target: T1, Sc.LNS (Streptomyces clavuligerus, UniProt D5SL78); assay: product formation in E. coli, GC-MS; assay type: cell-based; details: E. coli with mevalonate pathway; product nerolidol
T1 construct: gene SCLAV_p1185; codon-optimised gene in pET-11a, expressed in E. coli with mevalonate pathway, not purified
T1 sequence (D5SL78 1-329): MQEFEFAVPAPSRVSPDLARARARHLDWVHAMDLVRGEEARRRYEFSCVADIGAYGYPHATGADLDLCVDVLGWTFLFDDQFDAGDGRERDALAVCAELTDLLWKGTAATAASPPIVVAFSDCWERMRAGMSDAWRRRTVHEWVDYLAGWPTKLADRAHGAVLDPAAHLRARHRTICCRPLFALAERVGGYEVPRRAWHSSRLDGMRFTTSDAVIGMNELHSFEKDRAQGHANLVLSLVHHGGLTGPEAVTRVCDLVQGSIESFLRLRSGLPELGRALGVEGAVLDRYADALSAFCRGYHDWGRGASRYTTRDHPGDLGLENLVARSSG

[1] = substrate: CC(C)=CCC/C(C)=C/CC/C(C)=C/CO[P@@](=O)(O)OP(=O)(O)O; assay: PPi release, EnzChek pyrophosphate assay; assay type: biochemical, Cyclocybe aegerita; details: 37 °C, 1 h, enzyme 16.3% pure, product nerolidol
Source text: (§1) PPi release, EnzChek pyrophosphate assay on Aa.LNS (AAE3_109435)

[2] = substrate: CC(C)=CCC/C(C)=C/COP(=O)(O)OP(=O)(O)O; assay: PPi release, EnzChek pyrophosphate assay; assay type: biochemical, Cyclocybe aegerita; details: 37 °C, 1 h, enzyme 16.3% pure, product (R)-linalool
Source text: as §1

Molecule: CC(C)=CCC/C(C)=C/COP(=O)(O)OP(=O)(O)O [GPP]
- Km (Ap.LS (Agrped1_689675)): 3.8 ± 0.7 µM

Molecule: CC(C)=CCC/C(C)=C/CC/C(C)=C/COP(=O)(O)OP(=O)(O)O [(E,E)-FPP]
- product formation in E. coli, GC-MS (Sc.LNS): Sc.LNS produced a larger amount of nerolidol than linalool in E. coli

B1: Aa.LNS (AAE3_109435) (Cyclocybe aegerita) (protein)
chain: MHSSTQLFTHSPTKMQIILPDLLCSWGYKGFLNPHYEGAKAESNTWIRPLVVKLFDERGQKAFAKDYTGLLASMTYPHHNKEFLCVACDMMNLFFVYDEYTDITPPETAQRLAKIVVNAMRNPDEIAALGEDSIGTMTKQFWRRAMTLLPPNGCNSESCIQHFIDYTEEYLTAVTREACDRSSGSVHAVKDYLAMRRATSGAGLMVGLLEFGLDLPEEVMKHEVIQELSTGAIDMYCLLNDMHSYASELSSGQASHNVITVVMHERNLSLQEAFDWLASYAAGVVKGFKTNLNRVPSFSELEDHSLHGEGMLRDRIQRYIDGLGQAVRAEDDWAFETTRYHGQNGPQIKLTRMLTIRPQVKDNYAKQAPRVEAPERPMLLEVRS
- Km [1]: 9.0 ± 2.3 µM
- kcat [1]: 0.055 ± 0.005 s⁻¹
- kcat/Km [1]: 6670 M⁻¹ s⁻¹
- Km [2]: 6.7 ± 4.6 µM
- kcat [2]: 0.00833 ± 0.00167 s⁻¹
- kcat/Km [2]: 1670 M⁻¹ s⁻¹
